Test results as given in patent publication EP4219720A2 (Caribou Biosciences, Inc., dated 2023).

How the values were obtained:
[1] = biological target: T1, Cas8, Cas7, Cas6 and Cas5 of E. coli Type I-E Cascade with J3 crRNA (Escherichia coli K-12 MG1655, UniProt Q46901 1-502; Q46899 2-363; Q46897 2-199; Q46898 1-224); experiment: co-expression in E. coli, Ni-NTA capture by His6 on Cse2, SEC, Coomassie SDS-PAGE
T1 construct: They also hold the J3 crRNA; also called remaining Cascade subunits
T1 sequence 1: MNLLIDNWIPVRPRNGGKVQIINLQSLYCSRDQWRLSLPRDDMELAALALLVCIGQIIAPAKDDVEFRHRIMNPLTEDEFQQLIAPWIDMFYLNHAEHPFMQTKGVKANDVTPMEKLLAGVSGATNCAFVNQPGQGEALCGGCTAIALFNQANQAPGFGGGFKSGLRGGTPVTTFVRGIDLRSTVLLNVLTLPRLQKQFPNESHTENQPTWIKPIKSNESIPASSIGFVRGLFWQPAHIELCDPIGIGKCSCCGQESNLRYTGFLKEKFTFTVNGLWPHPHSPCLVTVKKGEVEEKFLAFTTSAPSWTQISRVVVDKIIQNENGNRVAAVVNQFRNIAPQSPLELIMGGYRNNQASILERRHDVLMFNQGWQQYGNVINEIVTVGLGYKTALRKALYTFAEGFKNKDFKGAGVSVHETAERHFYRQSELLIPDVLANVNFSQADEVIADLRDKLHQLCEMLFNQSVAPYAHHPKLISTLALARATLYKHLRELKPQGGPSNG
T1 sequence 2: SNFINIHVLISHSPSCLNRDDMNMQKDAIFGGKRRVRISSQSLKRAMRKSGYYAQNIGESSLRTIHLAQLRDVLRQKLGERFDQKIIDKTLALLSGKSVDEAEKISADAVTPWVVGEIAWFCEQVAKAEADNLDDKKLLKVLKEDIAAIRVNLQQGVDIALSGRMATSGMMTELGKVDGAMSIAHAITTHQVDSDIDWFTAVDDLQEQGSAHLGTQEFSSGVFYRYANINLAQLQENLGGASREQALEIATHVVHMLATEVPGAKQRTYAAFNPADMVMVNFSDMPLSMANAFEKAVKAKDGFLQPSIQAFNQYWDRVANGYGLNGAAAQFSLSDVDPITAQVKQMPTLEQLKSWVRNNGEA
T1 sequence 3: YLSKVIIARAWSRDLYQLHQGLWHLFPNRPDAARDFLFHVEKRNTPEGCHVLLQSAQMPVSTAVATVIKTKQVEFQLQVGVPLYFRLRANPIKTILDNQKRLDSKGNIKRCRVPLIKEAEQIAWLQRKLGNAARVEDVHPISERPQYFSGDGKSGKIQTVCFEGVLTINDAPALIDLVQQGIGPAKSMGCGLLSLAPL
T1 sequence 4: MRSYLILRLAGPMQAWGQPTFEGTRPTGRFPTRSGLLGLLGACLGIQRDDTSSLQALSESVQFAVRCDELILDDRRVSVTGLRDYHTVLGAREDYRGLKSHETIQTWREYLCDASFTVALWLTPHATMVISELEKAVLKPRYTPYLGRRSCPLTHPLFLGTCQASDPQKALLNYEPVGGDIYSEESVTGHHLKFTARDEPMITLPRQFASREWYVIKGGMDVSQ

[2] = biological target: T2, Cas7, Cas6 and Cas5 of E. coli Type I-E Cascade with L3 crRNA (Escherichia coli K-12 MG1655, UniProt Q46899 2-363; Q46897 2-199; Q46898 1-224); experiment: co-expression in E. coli, Strep-Tactin capture by Strep-tag II on Cse2, SEC, Coomassie SDS-PAGE
T2 construct: They also hold the L3 crRNA; This grouping is mine
T2 sequence 1: T1 sequence 2
T2 sequence 2: T1 sequence 3
T2 sequence 3: T1 sequence 4

[3] = biological target: T3, CasBCDE complex (Strep-tag II-HRV3C-Cse2, Cas7, Cas5, Cas6) with J3/L3 crRNAs (Escherichia coli K-12 MG1655, UniProt Q46899 2-363; Q46898 1-224; Q46897 2-199); experiment: reconstitution from separately purified parts; tested by plasmid DNA cleavage
T3 construct: It also holds a crRNA (J3 or L3 guide), so it is a ribonucleoprotein; Removal of the Strep tag is not described; also called Cas8-less Cascade complex; Cas8-minus Cascade complex
T3 sequence 1: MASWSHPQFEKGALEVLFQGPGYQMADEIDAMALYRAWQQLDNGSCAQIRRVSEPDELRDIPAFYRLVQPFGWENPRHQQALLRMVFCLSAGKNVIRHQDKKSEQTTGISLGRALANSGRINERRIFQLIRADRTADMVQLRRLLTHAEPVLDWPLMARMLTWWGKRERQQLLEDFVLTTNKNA
T3 sequence 2: T1 sequence 2
T3 sequence 3: T1 sequence 4
T3 sequence 4: T1 sequence 3

B1: His6-HRV3C-Cse2 (other)
chain: MAEHHHHHHGALEVLFQGPGYQMADEIDAMALYRAWQQLDNGSCAQIRRVSEPDELRDIPAFYRLVQPFGWENPRHQQALLRMVFCLSAGKNVIRHQDKKSEQTTGISLGRALANSGRINERRIFQLIRADRTADMVQLRRLLTHAEPVLDWPLMARMLTWWGKRERQQLLEDFVLTTNKNA
notes: The tagged subunit by which the Cascade complex was captured on Ni-NTA resin
binding result [1]: binds

B2: Strep-tag II-HRV3C-Cse2 (other)
chain: T3 sequence 1
notes: The tagged subunit by which the CasBCDE complex was captured on Strep-Tactin resin
binding result [2]: binds

B3: NLS-GGS-FokISharkey-30aa-linker-Cas8 (after TEV cleavage) (other)
chain: SNMPKKKRKVQLVKSELEEKKSELRHKLKYVPHEYIELIEIARNPTQDRILEMKVMEFFMKVYGYRGEHLGGSRKPDGAIYTVGSPIDYGVIVDTKAYSGGYNLPIGQADEMQRYVEENQTRNKHINPNEWWKVYPSSVTEFKFLFVSGHFKGNYKAQLTRLNHITNCNGAVLSVEELLIGGEMIKAGTLTLEEVRRKFNNGEINFSGSETPGTSESATPESGGSGSSGGSGSSGGMNLLIDNWIPVRPRNGGKVQIINLQSLYCSRDQWRLSLPRDDMELAALALLVCIGQIIAPAKDDVEFRHRIMNPLTEDEFQQLIAPWIDMFYLNHAEHPFMQTKGVKANDVTPMEKLLAGVSGATNCAFVNQPGQGEALCGGCTAIALFNQANQAPGFGGGFKSGLRGGTPVTTFVRGIDLRSTVLLNVLTLPRLQKQFPNESHTENQPTWIKPIKSNESIPASSIGFVRGLFWQPAHIELCDPIGIGKCSCCGQESNLRYTGFLKEKFTFTVNGLWPHPHSPCLVTVKKGEVEEKFLAFTTSAPSWTQISRVVVDKIIQNENGNRVAAVVNQFRNIAPQSPLELIMGGYRNNQASILERRHDVLMFNQGWQQYGNVINEIVTVGLGYKTALRKALYTFAEGFKNKDFKGAGVSVHETAERHFYRQSELLIPDVLANVNFSQADEVIADLRDKLHQLCEMLFNQSVAPYAHHPKLISTLALARATLYKHLRELKPQGGPSNG
notes: The tag was removed with TEV protease; also called Fokl-Cas8 fusion protein
binding result [3]: binds
